From patent publication US20030140381, “Genes and regulatory DNA sequences associated with stress-related gene expression in plants and methods of using the same” (Pioneer Hi-Bred International, Inc., published 2003)

Key:
[1] = target: T1, ZmABI4 (maize ABI4, AP2-domain transcription factor) (Zea mays); experiment: EMSA
[2] = target: T1, ZmABI4 (maize ABI4, AP2-domain …); experiment: EMSA; described as high affinity

T1 sequence (chain, as listed by the source): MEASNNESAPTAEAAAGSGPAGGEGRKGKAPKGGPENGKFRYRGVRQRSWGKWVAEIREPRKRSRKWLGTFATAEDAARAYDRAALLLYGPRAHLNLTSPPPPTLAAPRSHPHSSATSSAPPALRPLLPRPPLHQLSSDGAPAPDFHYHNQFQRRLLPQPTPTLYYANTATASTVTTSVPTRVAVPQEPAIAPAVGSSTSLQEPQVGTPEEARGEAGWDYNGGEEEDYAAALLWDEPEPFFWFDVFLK

B1: ZmABI4 upstream element (-175 to -158) (dsDNA)
DNA 1: TTTGACCACCGCCCCTCT
DNA 2: AGAGGGGCGGTGGTCAAA
**Q.** Does B1 bind [1]?
**A.** Result: binds

B2: Adh1 promoter element (-246 to -229) (dsDNA)
DNA 1: CGCCGCCACCGCTTGGCG
DNA 2: CGCCAAGCGGTGGCGGCG
**Q.** Does B2 bind [2]?
**A.** Result: binds
